Tests used:
Histone H1 = assay: Digestion of histone H1, SDS-PAGE; assay type: biochemical; conditions: for digestion of histone H1: 50 mM Tris-Cl, pH 7.5 overnight at 37° C.
Protocol: Histone H1 was incubated with various concentrations of the chromoprotein in 50 mM Tris-Cl, pH 7.5 overnight at 37° C. (FIG. 29) Digestions of histone were assessed by SDS-polyacrylamide gel electrophoresis (SDS-PAGE), followed by staining of the gel with GelCode Blue (Pierce Biotechnology, Inc, Rockford, Ill.).

histone H1 in HeLa cells = assay: Digestion of histone H1 in HeLa cells, immunoblot; assay type: cell-based; conditions: HeLa cells incubated overnight at 37° C.; anti-histone H1 immunoblot
Protocol: To study whether the digestion of histones by the chromoprotein occurs in intact cells, HeLa cells were incubated with compounds overnight at 37° C. Cell lysates were analysed by SDS-PAGE and protein immunoblotting using anti-histone H1 antibodies (Santa Cruz Biotechnologies). […] This activity can contribute to antitumor effects by digesting histones in chromatin, making the DNA more accessible for cleavage. This appears to be a unique activity of the chromoprotein enediynes.

Human PGP (MDR1) = biological target: T1, Human PGP (MDR1) (Homo sapiens, UniProt P08183); assay: Transport by P-GP (MDR-1); assay type: cell-based; conditions: result in words
T1 construct: cells expressing clinically relevant levels of MDR1 (KB-8-5 cells) remain sensitive to the complex; endogenous in cells; host or cells: KB (P-GP -), KB-8-5 (+), KB-V-1 (+++)
Excerpt: Human PGP (MDR1) is an ATP-dependent efflux pump which is capable of transporting many drugs across cell membranes. High level expression of this protein has been linked to multiple drug resistance of tumors. […] The protein component of the chromoprotein probably protects the chromophore from drug efflux mediated by MDR1, and may be responsible for the beneficial antitumor effects in colon cell lines which often express MDR1.

p21+/+ cells = assay: In vitro anti-tumor activity, isogenic pair of cell lines; assay type: cell-based; conditions: p21+/+ isogenic cell line; Mean + SD, n = 3
Excerpt: (§1) The p53/p21 checkpoint monitors the integrity of the genome and blocks cell cycle progression in the event of DNA damage. Disruption of the checkpoint by deletion of the p21 gene results in failure to arrest in response to DNA damage ultimately leading to cell death through apoptosis. Since loss of this checkpoint is a hallmark of cancer cells, an isogenic pair of cell lines, wherein one pair of the cell line (p21+/+) has an intact p21 gene and one member (p21−/−) has a deletion in the p21 gene, can be used to screen for potential anti-tumor compounds by identifying molecules that preferentially induce apoptosis in p21-deficient cells.
(§2) The Actinomadura sp. 21G792 chromoprotein was added to an isogenic pair of cell lines (p21+/+ and p21−/−).

p21−/− cells = assay: as above; assay type: cell-based; conditions: p21−/− isogenic cell line; Mean + SD, n = 3
Excerpt: as §1, §2

LoVo = assay: Potency against human tumor cell lines; assay type: cell-based; conditions: Colon
SW620 = assay: Potency against human tumor cell lines; assay type: cell-based; conditions: SW620, Colon
BT474 = assay: Potency against human tumor cell lines; assay type: cell-based; conditions: BT474, Breast
MCF-7 = assay: Potency against human tumor cell lines; assay type: cell-based; conditions: MCF-7, Breast
MDA-MB-361 = assay: Potency against human tumor cell lines; assay type: cell-based; conditions: MDA-MB-361, Breast
HN5 = assay: Potency against human tumor cell lines; assay type: cell-based; conditions: HN5, Head & Neck
Supercoiled φX174 DNA = assay: DNA cleavage assay, gel electrophoresis; assay type: biochemical
Protocol: Supercoiled φX174 DNA was incubated with various concentrations of the 21G792 chromoprotein and analyzed by gel electrophoresis. […] Nicked refers to single strand breaks in the DNA and linear refers to double strand breaks.

[1] = test system: histones H1, H2A, H2B, H3, and H4; assay: Specificity of protein digestion by the chromoprotein; assay type: biochemical; conditions: myelin basic protein, bovine serum albumin
[2] = test system: p53/p21 checkpoint in HCT116 (p21+/+ and p21−/−) cells; assay: Induction of the G1/S checkpoint, protein immunoblot; assay type: cell-based, human
Excerpt: HCT116 (p21+/+ and p21−/−) cells were exposed to the chromoprotein at various concentrations. […] Activation of the DNA damage checkpoint by the Actinomadura sp. […] 21G792 chromoprotein as shown by the cleavage of poly ADP ribose […] (PARP) (FIG. 23B). This is consistent with the lower IC50 value in the p21−/− cells.

[3] = Toxicity of the chromoprotein in nude mice; assay type: in vivo; conditions: except for bone marrow suppression
Protocol: 21G792 chromoprotein is well-tolerated in nude mice. Specifically, saline control vehicle or the chromoprotein in various doses was administered intravenously to six nude mice on days 1, 5, and 9.

[4] = test system: HCT116 colon carcinoma cells; assay: Uptake of FITC-tagged chromoprotein and apoprotein, fluorescent microscopy / flow cytometry; assay type: cell-based; conditions: for competition of label by unlabeled reagent: 10-fold excess of unlabeled reagent
Protocol: To determine the mechanism by which the chromoprotein enters cells and exerts its biological activity, the chromoprotein was labeled with a fluorescent tag (FITC) using EZ-Label fluorescent labeling kit (Pierce Biotechnology), according to the manufacturer's recommendation. […] Uptake of labeled material by HCT116 colon carcinoma cells was studied by fluorescent microscopy. Optimum incubation time with cells was 3-6 hours. […] Even though nuclear accumulation is low, the amount is most likely sufficient for biological activity given the potency of the complex.
To determine whether an intact complex of chromophore and apoprotein is required for cellular and nuclear entry, the chromoprotein and apoprotein were labeled with FITC. Uptake of labeled material was studied by fluorescent microscopy. Uptake was similar for both apoprotein and chromoprotein.
To determine whether the entry of chromoprotein into cells is mediated by a saturable (e.g. cell surface receptor-dependent) process, HCT116 cells were incubated with FITC-labeled chromoprotein (FIG. 37, right panel) or apoprotein (FIG. 37, left panel) in the absence or presence of 10-fold excess of unlabeled reagent (unlabelled chromoprotein or apoprotein, respectively). Cells were analysed by fluorescent microscopy (left) or flow cytometry (right). […] Furthermore, a single homogeneous peak observed in flow cytometry histograms indicated uniform uptake of labeled reagent by all cells. Numbers in the histograms are mean channel numbers (FITC fluorescence).
Other means by which a protein complex can enter cells is pinocytosis, where caveolae in the surface of the cell pinch off to form pinosomes that are free within the cytoplasm of the cell. Since pinocytosis is an energy-dependent process that requires a functional tubulin cytoskeletal network, we examined the effect of sodium azide, an energy uncoupling agent and nocodazole, an agent which disrupts the tubulin cytoskeleton on cellular uptake. HCT116 cells were treated with FITC-labeled apoprotein in the absence or presence of sodium azideor nocodazole. […] Since the data appears to rule out a receptor-mediated process, pinocytosis is most likely involved.

[5] = test system: E. coli BR513-80 SOS response; assay: Biochemical induction assay (BIA); assay type: cell-based; conditions: purified, approximately 90% pure
Excerpt: The biochemical induction assay identifies DNA damaging agents which induce the SOS response in E. coli BR513-80. BR513-80 contains a translational fusion of the λ PL promoter and the lacZ gene. The λ PL promoter, activated as part of the SOS response after exposure to DNA damaging agents, drives the synthesis of β-galactosidase. β-galactosidase activity is detected by the cleavage of the 6-bromo-2-naphthyl-β-D-galactopyranoside (BNG) which reacts with Fast Blue RR salt to produce a red/purple color. […]
A BR513-80 overnight culture is diluted 1:20 in LBE broth or equivalent, and the absorbance of the diluted culture is measured at 600 nm. The absorbance of the undiluted culture is calculated, and 5.7 is divided by this value to obtain the volume (in mL) of culture to use as an inoculum per 40 mL soft agar. […] The calculated culture volume is swirled in soft agar, poured evenly over the base layer (40 ml per Nunc BioAssay plate, or 20 mL per 150 mm petri dish), and allowed to solidify for at least 10-15 minutes. […]
A dye/substrate overlay is prepared by dissolving 87 mg Fast Blue RR salt and 13 mg BNG in 2 mL DMSO and mixing with 40 mL melted 1% soft agar. […] The induction response is scored after 15-20 minutes at room temperature or after 10 min. at about 37° C. […]

[6] = test system: human tumor cell line panel; assay: Human tumor cell line panel (whole panel); assay type: cell-based; conditions: result in words

T1 sequence (P08183 whole entry): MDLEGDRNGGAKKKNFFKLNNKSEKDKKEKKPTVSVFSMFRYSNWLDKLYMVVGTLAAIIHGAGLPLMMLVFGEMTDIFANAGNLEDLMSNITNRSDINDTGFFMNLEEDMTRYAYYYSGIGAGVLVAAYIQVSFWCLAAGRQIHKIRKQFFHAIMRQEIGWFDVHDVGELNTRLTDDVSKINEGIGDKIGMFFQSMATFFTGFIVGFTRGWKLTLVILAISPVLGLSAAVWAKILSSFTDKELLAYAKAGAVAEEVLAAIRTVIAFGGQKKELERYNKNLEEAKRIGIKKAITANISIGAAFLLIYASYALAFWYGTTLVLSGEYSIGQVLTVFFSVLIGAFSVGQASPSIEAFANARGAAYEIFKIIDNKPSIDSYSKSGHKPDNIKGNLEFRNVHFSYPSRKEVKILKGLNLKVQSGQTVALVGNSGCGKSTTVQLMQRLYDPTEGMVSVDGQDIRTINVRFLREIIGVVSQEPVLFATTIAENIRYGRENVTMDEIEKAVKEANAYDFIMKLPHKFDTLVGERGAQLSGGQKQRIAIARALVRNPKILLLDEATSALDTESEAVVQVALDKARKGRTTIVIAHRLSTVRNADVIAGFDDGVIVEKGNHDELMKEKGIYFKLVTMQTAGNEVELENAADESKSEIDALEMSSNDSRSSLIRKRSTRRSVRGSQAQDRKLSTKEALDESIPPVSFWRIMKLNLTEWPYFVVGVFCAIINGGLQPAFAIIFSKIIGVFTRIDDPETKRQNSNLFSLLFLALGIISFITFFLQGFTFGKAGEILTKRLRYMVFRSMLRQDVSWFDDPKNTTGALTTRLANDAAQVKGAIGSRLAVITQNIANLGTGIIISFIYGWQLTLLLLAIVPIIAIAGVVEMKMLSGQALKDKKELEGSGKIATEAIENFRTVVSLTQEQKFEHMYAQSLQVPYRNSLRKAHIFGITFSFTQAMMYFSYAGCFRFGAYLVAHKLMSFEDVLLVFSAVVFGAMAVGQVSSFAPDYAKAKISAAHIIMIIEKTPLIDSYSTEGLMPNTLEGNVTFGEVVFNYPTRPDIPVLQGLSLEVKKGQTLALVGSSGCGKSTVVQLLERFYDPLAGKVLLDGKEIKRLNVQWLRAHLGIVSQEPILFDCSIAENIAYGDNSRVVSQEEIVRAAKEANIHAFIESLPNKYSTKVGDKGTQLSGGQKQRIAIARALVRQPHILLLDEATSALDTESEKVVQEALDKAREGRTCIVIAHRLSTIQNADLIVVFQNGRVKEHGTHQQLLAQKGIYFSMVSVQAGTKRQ

calicheamicin [reference compound]
digestion of histone H1 (Histone H1): did not cleave histone H1
histone H1 in cells (histone H1 in HeLa cells): No effect
MDR1 substrate (Human PGP (MDR1)): good substrate for MDR1

bleomycin
histone H1 in cells (histone H1 in HeLa cells): No effect

B1: Actinomadura sp. 21G792 chromoprotein: non-covalent complex of an apoprotein and a chromophore comprising a nine-membered enediyne, produced by Actinomadura sp. 21G792 (NRRL 30778) (protein)
chain: DTVTVNYDCVGYPSDIAVTIDAPATAGVGDTATFEVSSVVTTGAPQDLPAGEVVTDMAIVVGGAQSGTITASGLTNEATPAGQPVNMVGGEAQITFTSAGSVTFTPSTTTQVDNGAQCTVVGEAPVGATTVVS
IC50 (p21+/+ cells): 90 + 32 μg/ml
IC50 (p21−/− cells): 7 + 2 μg/ml
IC50 (LoVo): 2 µg/mL
IC50 (SW620): 2 µg/mL
IC50 (BT474): 47 µg/mL
IC50 (MCF-7): 2 µg/mL
IC50 (MDA-MB-361): 5 µg/mL
IC50 (HN5): 4 µg/mL
requirement of a reducing agent for DNA cleavage (Supercoiled φX174 DNA; dithiothreitol, DTT): did not require a reducing agent
DNA cleavage (Supercoiled φX174 DNA; various concentrations, reaction progressed over 24 hours): induced single strand breaks and double strand breaks
effect of free radical scavengers and protease inhibitors on digestion of histones (Histone H1; 30 mM glutathione or N-acetyl cysteine, protease inhibitors): inhibited by the addition of free radical scavengers, 30 mM glutathione or N-acetyl cysteine (not shown), but not by protease inhibitors
digestion of histone H1 (Histone H1): digestion of Histone H1
effect of DNA on digestion of histone H1 (Histone H1; addition of DNA): inhibited by addition of DNA
cleavage of other proteins [1]: cleaves other basic proteins such as myelin basic protein, but not neutral/acidic proteins such as bovine serum albumin
histone H1 in cells (histone H1 in HeLa cells): reduced histone H1 in cells
induction of the p21 protein ([2]; HCT116 p21+/+ and p21−/−): Induction of the p21 protein was seen in the p21+/+ cells only
induction of apoptosis (PARP cleavage) ([2]; p21−/− compared with p21+/+ cells): induction of apoptosis was preferentially observed in p21−/− cells compared with p21+/+ cells
tolerability in nude mice [3]: well-tolerated
MDR1 substrate (Human PGP (MDR1)): poor MDR1 substrate
competition of label by unlabeled reagent [4]: No competition of label was observed
biological activity upon FITC labeling ([4]; FITC labeled): No loss of biological activity
uptake of labeled material, apoprotein versus chromoprotein ([4]; FITC labeled): similar
cellular localisation of label ([4]; FITC labeled, fluorescent microscopy): Most of the label appeared in the cytoplasm, although weak staining was also observed in the nucleus
BIA activity [5]: BIA active

B2: apoprotein: 21G792 apoprotein (SEQ ID NO:150), protein component of the chromoprotein without chromophore (protein)
chain: DTVTVNYDCVGYPSDIAVTIDAPATAGVGDTATFEVSSVVTTGAPQDLPAGEVVTDMAIVVGGAQSGTITASGLTNEATPAGQPVNMVGGEAQITFTSAGSVTFTPSTTTQVDNGAQCTVVGEAPVGATTVVS
modifications: Actinomadura sp. 21G792
in vitro anti-tumor activity [6]: inactive
digestion of histone H1 (Histone H1): no activity
competition of label by unlabeled reagent [4]: No competition of label was observed
uptake of labeled material, apoprotein versus chromoprotein ([4]; FITC labeled): similar
effect of sodium azide or nocodazole on uptake of label ([4]; FITC-labeled, nocodazole 100 nM): Both treatments inhibited uptake of label
